Data taken from patent US20160168247A1 (published 2016).

T1: HSC-F (cynomolgus monkey, UniProt Q95LI8 22-171; Q95LI7 23-181)
T1 chain: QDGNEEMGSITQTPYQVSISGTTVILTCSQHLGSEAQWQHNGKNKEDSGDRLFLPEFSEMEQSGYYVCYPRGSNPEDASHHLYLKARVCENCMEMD


Tests used:
[1] = biological target: T1, HSC-F; experiment: FACS binding; Fig 2A
[2] = biological target: human CD3 (on the human T-cell line Jurkat or on human T-cells) (human, UniProt P09693 23-182; P20963 22-164); experiment: FACS binding
[3] = biological target: T1, HSC-F; experiment: FACS binding
[4] = biological target: T1, HSC-F; experiment: FACS binding

Sequence of human CD3 (on the human T-cell line Jurkat or on human T-cells) (chain, as listed by the source, chain 1 of 4): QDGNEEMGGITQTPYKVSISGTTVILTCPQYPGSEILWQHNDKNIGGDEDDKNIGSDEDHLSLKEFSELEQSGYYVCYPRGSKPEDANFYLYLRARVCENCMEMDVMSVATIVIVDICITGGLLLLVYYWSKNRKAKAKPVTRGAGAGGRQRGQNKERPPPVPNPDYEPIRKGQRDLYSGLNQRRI
Sequence of human CD3 (on the human T-cell line Jurkat or on human T-cells) (chain, as listed by the source, chain 2 of 4): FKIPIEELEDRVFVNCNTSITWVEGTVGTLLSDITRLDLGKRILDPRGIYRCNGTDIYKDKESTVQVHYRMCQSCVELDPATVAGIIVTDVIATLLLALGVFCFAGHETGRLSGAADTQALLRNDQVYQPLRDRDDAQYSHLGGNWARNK
Sequence of human CD3 (on the human T-cell line Jurkat or on human T-cells) (P09693 23-182, chain 3 of 4): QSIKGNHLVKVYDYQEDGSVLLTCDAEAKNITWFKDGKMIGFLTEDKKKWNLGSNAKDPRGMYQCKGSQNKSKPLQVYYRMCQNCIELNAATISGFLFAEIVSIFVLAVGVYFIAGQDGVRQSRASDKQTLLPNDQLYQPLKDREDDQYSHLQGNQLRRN
Sequence of human CD3 (on the human T-cell line Jurkat or on human T-cells) (P20963 22-164, chain 4 of 4): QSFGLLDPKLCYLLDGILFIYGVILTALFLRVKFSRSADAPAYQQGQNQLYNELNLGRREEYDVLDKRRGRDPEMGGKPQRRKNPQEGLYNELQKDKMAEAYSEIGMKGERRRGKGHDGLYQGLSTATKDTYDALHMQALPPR

Binder | EC50 [2] [µg/mL] | EC50 [3] [µg/mL] | further results
IgG1-huCD3-H1L1 (antibody, V domains shown) VH: EVKLVESGGGLVQPGGSLRLSCAASGFTFNTYAMNWVRQAPGKGLEWVARIRSKYNNYATYYADSVKDRFTISRDDSKSSLYLQMNNLKTEDTAMYYCVRHGNFGNSYVSWFAYWGQGTLVTVSS VL: not shown | – | – | EC50 [1]: 0.37 µg/mL
bsIgG1-huCD3-H1L1xHER2-LFLEDA (bispecific antibody, V domains shown) VH 1: EVKLVESGGGLVQPGGSLRLSCAASGFTFNTYAMNWVRQAPGKGLEWVARIRSKYNNYATYYADSVKDRFTISRDDSKSSLYLQMNNLKTEDTAMYYCVRHGNFGNSYVSWFAYWGQGTLVTVSS VL 1: not shown VH 2: QVQLVQSGAEVKKPGASVKVSCKASGYTFTNYGISWVRQAPGQGLEWMGWLSAYSGNTIYAQKLQGRVTMTTDTSTTTAYMELRSLRSDDTAVYYCARDRIVVRPDYFDYWGQGTLVTVSS VL 2: EIVLTQSPATLSLSPGERATLSCRASQSVSSYLAWYQQKPGQAPRLLIYDASNRATGIPARFSGSGSGTDFTLTISSLEPEDFAVYYCQQRSNWPRTFGQGTKVEIK | – | 0.32 | –
bsIgG1-huCD3-H4L1×HER2-LFLEDA (bispecific antibody, V domains shown) VH 1: EVKLVESGGGLVKPGRSLRLSCAASGFTFNTYAMNWVRQAPGKGLEWVARIRSKYNNYATYYADSVKDRFTISRDDSKSILYLQMNSLKTEDTAMYYCVRHGNFGNSYVSWFAYWGQGTMVTVSS VL 1: not shown VH 2: QVQLVQSGAEVKKPGASVKVSCKASGYTFTNYGISWVRQAPGQGLEWMGWLSAYSGNTIYAQKLQGRVTMTTDTSTTTAYMELRSLRSDDTAVYYCARDRIVVRPDYFDYWGQGTLVTVSS VL 2: EIVLTQSPATLSLSPGERATLSCRASQSVSSYLAWYQQKPGQAPRLLIYDASNRATGIPARFSGSGSGTDFTLTISSLEPEDFAVYYCQQRSNWPRTFGQGTKVEIK | 0.62 | – | –
bsIgG1-huCD3-H3L3×HER2-LFLEDA (bispecific antibody, V domains shown) VH 1: EVKLVESGGGLVKPGRSLRLSCAASGFTFNTYAMNWVRQAPGKGLEWVARIRSKYNNYATYYADSVKDRFTISRDDSKSILYLQMNSLKTEDTAMYYCVRHGNFGNSYVSWFAYWGQGTLVTVSS VL 1: QAVVTQEPSFSVSPGGTVTLTCRSSTGAVTTSNYANWVQQTPGQAFRGLIGGTNKRAPGVPARFSGSILGNKAALTITGAQADDESDYYCALWYSNLWVFGGGTKLTVL VH 2: QVQLVQSGAEVKKPGASVKVSCKASGYTFTNYGISWVRQAPGQGLEWMGWLSAYSGNTIYAQKLQGRVTMTTDTSTTTAYMELRSLRSDDTAVYYCARDRIVVRPDYFDYWGQGTLVTVSS VL 2: EIVLTQSPATLSLSPGERATLSCRASQSVSSYLAWYQQKPGQAPRLLIYDASNRATGIPARFSGSGSGTDFTLTISSLEPEDFAVYYCQQRSNWPRTFGQGTKVEIK | 0.74 | – | –
IgG1-huCD3-H1L1-LFLEDA (antibody, V domains shown) VH: EVKLVESGGGLVQPGGSLRLSCAASGFTFNTYAMNWVRQAPGKGLEWVARIRSKYNNYATYYADSVKDRFTISRDDSKSSLYLQMNNLKTEDTAMYYCVRHGNFGNSYVSWFAYWGQGTLVTVSS VL: not shown | – | – | EC50 [4]: 0.03 µg/mL
bsIgG1-huCD3-H4L1xHER2-LFLEDA (bispecific antibody, V domains shown) VH 1: EVKLVESGGGLVKPGRSLRLSCAASGFTFNTYAMNWVRQAPGKGLEWVARIRSKYNNYATYYADSVKDRFTISRDDSKSILYLQMNSLKTEDTAMYYCVRHGNFGNSYVSWFAYWGQGTMVTVSS VL 1: not shown VH 2: QVQLVQSGAEVKKPGASVKVSCKASGYTFTNYGISWVRQAPGQGLEWMGWLSAYSGNTIYAQKLQGRVTMTTDTSTTTAYMELRSLRSDDTAVYYCARDRIVVRPDYFDYWGQGTLVTVSS VL 2: EIVLTQSPATLSLSPGERATLSCRASQSVSSYLAWYQQKPGQAPRLLIYDASNRATGIPARFSGSGSGTDFTLTISSLEPEDFAVYYCQQRSNWPRTFGQGTKVEIK | – | 0.36 | –

Continued, in another order:

EC50 [2] [µg/mL] | EC50 [3] [µg/mL] | Binder | further results
0.59 | – | bsIgG1-huCD3-H4L3×HER2-LFLEDA (bispecific antibody, V domains shown) VH 1: EVKLVESGGGLVKPGRSLRLSCAASGFTFNTYAMNWVRQAPGKGLEWVARIRSKYNNYATYYADSVKDRFTISRDDSKSILYLQMNSLKTEDTAMYYCVRHGNFGNSYVSWFAYWGQGTMVTVSS VL 1: QAVVTQEPSFSVSPGGTVTLTCRSSTGAVTTSNYANWVQQTPGQAFRGLIGGTNKRAPGVPARFSGSILGNKAALTITGAQADDESDYYCALWYSNLWVFGGGTKLTVL VH 2: QVQLVQSGAEVKKPGASVKVSCKASGYTFTNYGISWVRQAPGQGLEWMGWLSAYSGNTIYAQKLQGRVTMTTDTSTTTAYMELRSLRSDDTAVYYCARDRIVVRPDYFDYWGQGTLVTVSS VL 2: EIVLTQSPATLSLSPGERATLSCRASQSVSSYLAWYQQKPGQAPRLLIYDASNRATGIPARFSGSGSGTDFTLTISSLEPEDFAVYYCQQRSNWPRTFGQGTKVEIK | –
– | 0.26 | bsIgG1-huCD3-H3L3xHER2-LFLEDA (bispecific antibody, V domains shown) VH 1: EVKLVESGGGLVKPGRSLRLSCAASGFTFNTYAMNWVRQAPGKGLEWVARIRSKYNNYATYYADSVKDRFTISRDDSKSILYLQMNSLKTEDTAMYYCVRHGNFGNSYVSWFAYWGQGTLVTVSS VL 1: QAVVTQEPSFSVSPGGTVTLTCRSSTGAVTTSNYANWVQQTPGQAFRGLIGGTNKRAPGVPARFSGSILGNKAALTITGAQADDESDYYCALWYSNLWVFGGGTKLTVL VH 2: QVQLVQSGAEVKKPGASVKVSCKASGYTFTNYGISWVRQAPGQGLEWMGWLSAYSGNTIYAQKLQGRVTMTTDTSTTTAYMELRSLRSDDTAVYYCARDRIVVRPDYFDYWGQGTLVTVSS VL 2: EIVLTQSPATLSLSPGERATLSCRASQSVSSYLAWYQQKPGQAPRLLIYDASNRATGIPARFSGSGSGTDFTLTISSLEPEDFAVYYCQQRSNWPRTFGQGTKVEIK | –
– | 0.25 | bsIgG1-huCD3-H1L3xHER2-LFLEDA (bispecific antibody, V domains shown) VH 1: EVKLVESGGGLVQPGGSLRLSCAASGFTFNTYAMNWVRQAPGKGLEWVARIRSKYNNYATYYADSVKDRFTISRDDSKSSLYLQMNNLKTEDTAMYYCVRHGNFGNSYVSWFAYWGQGTLVTVSS VL 1: QAVVTQEPSFSVSPGGTVTLTCRSSTGAVTTSNYANWVQQTPGQAFRGLIGGTNKRAPGVPARFSGSILGNKAALTITGAQADDESDYYCALWYSNLWVFGGGTKLTVL VH 2: QVQLVQSGAEVKKPGASVKVSCKASGYTFTNYGISWVRQAPGQGLEWMGWLSAYSGNTIYAQKLQGRVTMTTDTSTTTAYMELRSLRSDDTAVYYCARDRIVVRPDYFDYWGQGTLVTVSS VL 2: EIVLTQSPATLSLSPGERATLSCRASQSVSSYLAWYQQKPGQAPRLLIYDASNRATGIPARFSGSGSGTDFTLTISSLEPEDFAVYYCQQRSNWPRTFGQGTKVEIK | –
0.58 | – | bsIgG1-huCD3-H1L3×HER2-LFLEDA (bispecific antibody, V domains shown) VH 1: EVKLVESGGGLVQPGGSLRLSCAASGFTFNTYAMNWVRQAPGKGLEWVARIRSKYNNYATYYADSVKDRFTISRDDSKSSLYLQMNNLKTEDTAMYYCVRHGNFGNSYVSWFAYWGQGTLVTVSS VL 1: QAVVTQEPSFSVSPGGTVTLTCRSSTGAVTTSNYANWVQQTPGQAFRGLIGGTNKRAPGVPARFSGSILGNKAALTITGAQADDESDYYCALWYSNLWVFGGGTKLTVL VH 2: QVQLVQSGAEVKKPGASVKVSCKASGYTFTNYGISWVRQAPGQGLEWMGWLSAYSGNTIYAQKLQGRVTMTTDTSTTTAYMELRSLRSDDTAVYYCARDRIVVRPDYFDYWGQGTLVTVSS VL 2: EIVLTQSPATLSLSPGERATLSCRASQSVSSYLAWYQQKPGQAPRLLIYDASNRATGIPARFSGSGSGTDFTLTISSLEPEDFAVYYCQQRSNWPRTFGQGTKVEIK | –
– | 0.28 | bsIgG1-huCD3-H3L1xHER2-LFLEDA (bispecific antibody, V domains shown) VH 1: EVKLVESGGGLVKPGRSLRLSCAASGFTFNTYAMNWVRQAPGKGLEWVARIRSKYNNYATYYADSVKDRFTISRDDSKSILYLQMNSLKTEDTAMYYCVRHGNFGNSYVSWFAYWGQGTLVTVSS VL 1: not shown VH 2: QVQLVQSGAEVKKPGASVKVSCKASGYTFTNYGISWVRQAPGQGLEWMGWLSAYSGNTIYAQKLQGRVTMTTDTSTTTAYMELRSLRSDDTAVYYCARDRIVVRPDYFDYWGQGTLVTVSS VL 2: EIVLTQSPATLSLSPGERATLSCRASQSVSSYLAWYQQKPGQAPRLLIYDASNRATGIPARFSGSGSGTDFTLTISSLEPEDFAVYYCQQRSNWPRTFGQGTKVEIK | –
